# Data published in IntAct's records for PubMed 31515488.
# B1: Zinc finger protein 581 (Homo sapiens), Q9P0T4 (parent)
# chain: MLVLPSPCPQPLAFSSVETMEGPPRRTCRSPEPGPSSSIGSPQASSPPRPNHYLLIDTQGVPYTVLVDEESQREPGASGAPGQKKCYSCPVCSRVFEYMSYLQRHSITHSEVKPFECDICGKAFKRASHLARHHSIHLAGGGRPHGCPLCPRRFRDAGELAQHSRVHSGERPFQCPHCPRRFMEQNTLQKHTRWKHP
# partner: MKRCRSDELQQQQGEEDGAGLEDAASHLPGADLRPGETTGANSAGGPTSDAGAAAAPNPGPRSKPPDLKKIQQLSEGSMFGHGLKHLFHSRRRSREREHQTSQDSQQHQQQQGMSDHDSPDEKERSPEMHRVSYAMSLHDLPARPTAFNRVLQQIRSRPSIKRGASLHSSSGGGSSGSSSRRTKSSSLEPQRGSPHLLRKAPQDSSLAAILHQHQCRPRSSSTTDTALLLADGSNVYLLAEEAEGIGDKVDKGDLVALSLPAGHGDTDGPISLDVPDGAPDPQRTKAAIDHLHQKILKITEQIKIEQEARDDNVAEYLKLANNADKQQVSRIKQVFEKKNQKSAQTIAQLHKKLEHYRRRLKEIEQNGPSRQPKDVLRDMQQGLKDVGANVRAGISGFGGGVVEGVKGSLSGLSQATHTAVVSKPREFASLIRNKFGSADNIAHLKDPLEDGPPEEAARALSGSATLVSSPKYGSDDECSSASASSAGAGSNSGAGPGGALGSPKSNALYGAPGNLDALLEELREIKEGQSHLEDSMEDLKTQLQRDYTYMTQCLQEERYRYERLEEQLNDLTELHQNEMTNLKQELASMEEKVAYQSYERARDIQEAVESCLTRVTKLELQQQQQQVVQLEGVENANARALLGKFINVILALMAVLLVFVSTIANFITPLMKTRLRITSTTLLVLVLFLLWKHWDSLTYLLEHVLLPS
# B2: Zinc finger protein Aiolos (Homo sapiens), Q9UKT9 (parent)
# chain: MEDIQTNAELKSTQEQSVPAESAAVLNDYSLTKSHEMENVDSGEGPANEDEDIGDDSMKVKDEYSERDENVLKSEPMGNAEEPEIPYSYSREYNEYENIKLERHVVSFDSSRPTSGKMNCDVCGLSCISFNVLMVHKRSHTGERPFQCNQCGASFTQKGNLLRHIKLHTGEKPFKCHLCNYACQRRDALTGHLRTHSVEKPYKCEFCGRSYKQRSSLEEHKERCRTFLQSTDPGDTASAEARHIKAEMGSERALVLDRLASNVAKRKSSMPQKFIGEKRHCFDVNYNSSYMYEKESELIQTRMMDQAINNAISYLGAEALRPLVQTPPAPTSEMVPVISSMYPIALTRAEMSNGAPQELEKKSIHLPEKSVPSERGLSPNNSGHDSTDTDSNHEERQNHIYQQNHMVLSRARNGMPLLKEVPRSYELLKPPPICPRDSVKVINKEGEVMDVYRCDHCRVLFLDYVMFTIHMGCHGFRDPFECNMCGYRSHDRYEFSSHIARGEHRALLK
# partner: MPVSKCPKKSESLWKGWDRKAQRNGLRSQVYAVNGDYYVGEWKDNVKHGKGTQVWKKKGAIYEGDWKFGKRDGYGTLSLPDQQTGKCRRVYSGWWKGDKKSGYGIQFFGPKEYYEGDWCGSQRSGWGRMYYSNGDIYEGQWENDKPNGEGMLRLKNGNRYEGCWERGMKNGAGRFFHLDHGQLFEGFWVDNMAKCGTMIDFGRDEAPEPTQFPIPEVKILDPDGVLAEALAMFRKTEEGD
# B3: Protein LDOC1 (Homo sapiens), O95751 (parent)
# chain: MVDELVLLLHALLMRHRALSIENSQLMEQLRLLVCERASLLRQVRPPSCPVPFPETFNGESSRLPEFIVQTASYMLVNENRFCNDAMKVAFLISLLTGEAEEWVVPYIEMDSPILGDYRAFLDEMKQCFGWDDDEDDDDEEEEDDY
# partner: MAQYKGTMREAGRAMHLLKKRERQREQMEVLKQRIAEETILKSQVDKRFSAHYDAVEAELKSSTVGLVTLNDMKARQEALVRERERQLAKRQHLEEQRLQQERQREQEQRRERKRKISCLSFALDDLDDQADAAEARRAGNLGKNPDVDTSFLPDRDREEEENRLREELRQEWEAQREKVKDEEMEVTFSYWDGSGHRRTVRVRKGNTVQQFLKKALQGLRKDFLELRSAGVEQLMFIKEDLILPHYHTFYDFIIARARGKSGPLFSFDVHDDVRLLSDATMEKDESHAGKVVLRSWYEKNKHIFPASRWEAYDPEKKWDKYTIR
# B4: DNA replication complex GINS protein PSF2 (Homo sapiens), Q9Y248 (parent)
# chain: MDAAEVEFLAEKELVTIIPNFSLDKIYLIGGDLGPFNPGLPVEVPLWLAINLKQRQKCRLLPPEWMDVEKLEKMRDHERKEETFTPMPSPYYMELTKLLLNHASDNIPKADEIRTLVKDMWDTRIAKLRVSADSFVRQQEAHAKLDNLTLMEINTSGTFLTQALNHMYKLRTNLQPLESTQSQDF
# Variants of: B1
# Conditions: with tmcc2_human TMCC2, O75069
row,effect of a mutation on the interaction,Variant
1,with no effect,R143W
2,with no effect,E32A

# Variants of: B2
# Conditions: with morn3_human MORN3, Q6PF18
row,effect of a mutation on the interaction,Variant
1,with no effect,N119D
2,with no effect,A24V

# Variants of: B3
# Conditions: with fa50b_human FAM50B
row,effect of a mutation on the interaction,Variant
1,disrupting interaction strength,L12H

# Variants of: B4
# Conditions: with sld5_human GINS4, Q9BRT9
# sld5_human GINS4, Q9BRT9, sequence (Q9BRT9 whole entry): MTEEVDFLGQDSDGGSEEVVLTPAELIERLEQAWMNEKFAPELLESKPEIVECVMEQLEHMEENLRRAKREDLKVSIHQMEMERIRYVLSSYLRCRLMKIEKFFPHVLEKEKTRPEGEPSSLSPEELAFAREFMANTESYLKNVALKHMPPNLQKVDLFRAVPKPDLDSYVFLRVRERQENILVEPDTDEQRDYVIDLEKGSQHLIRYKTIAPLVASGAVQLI
row,effect of a mutation on the interaction,Variant
1,with no effect,D24G
2,with no effect,I26T
3,with no effect,L150S
